Assay results reported in paper PMC5986207, “Structural insights into the mechanism of action of a biparatopic anti-HER2 antibody” (The Journal of Biological Chemistry, 2018).

Target: T1, human HER2 extracellular domain, soluble, His-tagged (Homo sapiens)
T1 construct: human HER2 (ERBB2) extracellular domain, subdomains I-IV; the electron density covers amino acids 1 to 575, leaving the last 55 residues invisible; About 86 kDa, of which 17 kDa glycan; The purified His-tagged HER2 (crystals, AUC); also called HER2 ecd; soluble HER2; source: HEK293F; purified (IMAC, Superdex200) for crystals; cell culture supernatant for SPR
Experiment: AUC; multisignal sedimentation velocity (MSSV), 4:1 molar loading of HER2 to antibody (5.8:1.4 μM), PBS, 20 °C, 42,000 rpm, UV 280 and 250 nm and interference, SEDPHAT
Conditions: both partners purified

B1: anti-HER2 fully human mAb 39S (IgG1κ) (antibody, V domains shown)
VH: EVQLVESGGGLVKPGGSLRLSCAASGFTFSSYSMSWVRQAPGKGLEWVSSISSSSSYIYYADSVKGRFTISRDNAKNSLYLQMNSLRAEDTAVYYCARGGDAYNYYYFDYWGQGTLVTVSS
VL: DIVMTQTPLSLSVTPGQPASISCKSSQSVFFRSNNKNILAWYLQKPGQPPQLLIYWASSRESGVPDRFSGSGSGTDFTLKISRVEAEDVGVYYCQQYFGSPFTFGPGTKVDIK
notes: variable domain of the 39S heavy chain; as in the heavy chain of m1 (PDB 6ATT); human IgG1 heavy chain constant region (its CH1 is also in the heavy chain of PDB 6ATT); whole kappa light chain of 39S; as the light chain of m1 (PDB 6ATT); IgG1 kappa, about 148 kDa; also called 39S mAb; Antibody 39S
Q: Which “stoichiometry N” value does the source give for B1 here?
A: The value was 2 HER2 per 39S mAb.
